For test [1], the target named is T1, reduced p38α (MAPK14), recombinant mouse protein kept with reducing agent (DTT or TCEP) (mouse, UniProt P47811 1-360). The test is described as follows: ITC. Background: Isothermal titration calorimetry measures the heat released or taken up as one component is titrated into another.
The target in test [2] is T1, reduced p38α (MAPK14), recombinant …. The test is described as follows: ITC; oxidized p38α re-reduced by dialysis with TCEP.

Where no end group is shown, it is not given here.

T1 sequence (P47811 whole entry): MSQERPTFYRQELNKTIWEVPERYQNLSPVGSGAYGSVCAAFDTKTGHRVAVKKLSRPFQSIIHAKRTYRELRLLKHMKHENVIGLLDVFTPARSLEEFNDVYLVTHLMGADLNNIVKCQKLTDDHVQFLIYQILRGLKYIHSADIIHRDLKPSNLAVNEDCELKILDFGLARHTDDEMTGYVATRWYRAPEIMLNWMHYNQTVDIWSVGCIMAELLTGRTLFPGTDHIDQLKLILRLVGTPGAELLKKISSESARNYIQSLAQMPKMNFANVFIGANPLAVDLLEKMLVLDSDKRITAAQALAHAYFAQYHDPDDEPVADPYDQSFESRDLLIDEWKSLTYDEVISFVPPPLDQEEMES

By Kd is commonly meant a measure of binding affinity in units of concentration. RVYPVSVPYSSAQSTSKTSVTLSLVMPSQ (also: FITC label, end not given here) [FITC-TAB1 peptide (amino acids 384-412 of TAB1)]: the Kd in test [1] amounted to 1200 nM; in test [2], 2660 nM.
